Test results reported in PMC12262048, “Nodal modulator (NOMO) is a force-bearing transmembrane protein required for muscle differentiation” (The Journal of Cell Biology, 2025).
Where a chain is given by its changes, count along the chain named. Numbers in names are those of the source. Where “and” joins values, the source holds several entries; their conditions need not be identical. Equal entries are not always repeated. Blank lines part the entries; values can stand above or below the binder they belong to.

Experiments:
[1] = target: the molecule itself; assay: SEC-MALS; room temperature; 50 mM MES pH 6.0, 150 mM KCl, 5 mM CaCl2, 5 mM MgCl2, 2% glycerol, 0.05% DDM; 1–1.5 mg/ml; molar mass corrected for detergent
[2] = target: T1, His6-Ig 10–11 (NOMO1 Ig-like domains 10–11) (human); assay: ITC
T1 chain: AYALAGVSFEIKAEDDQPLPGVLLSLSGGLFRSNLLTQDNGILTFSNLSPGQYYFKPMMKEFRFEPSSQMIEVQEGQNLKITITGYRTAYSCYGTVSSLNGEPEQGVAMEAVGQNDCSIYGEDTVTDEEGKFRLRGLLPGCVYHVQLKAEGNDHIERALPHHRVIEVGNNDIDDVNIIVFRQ

[3] = target: T2, His6-Ig 1–2 (NOMO1 Ig-like domains 1–2) (human); assay: ITC; VP-ITC, 25°C; 300 µM His6-Ig 10–11 injected from the syringe into the cell with 20 µM His6-Ig 1–2 or His6-Ig 1–2^3-Mut; 50 mM Tris-HCl pH 7.5, 100 mM NaCl, 5 mM MgCl2, 5 mM CaCl2; n = 3; details: both partners purified
T2 chain: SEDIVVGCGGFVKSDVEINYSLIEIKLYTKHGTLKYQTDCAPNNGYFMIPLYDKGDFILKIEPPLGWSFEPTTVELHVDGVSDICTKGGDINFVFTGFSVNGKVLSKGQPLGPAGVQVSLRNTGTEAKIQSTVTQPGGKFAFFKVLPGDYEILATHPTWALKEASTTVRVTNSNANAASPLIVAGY

B1: FL WT NOMO (NOMO1^WT-FLAG) (natural protein, human, UniProt Q15155 32-1222, looked up)
chain: SEDIVVGCGGFVKSDVEINYSLIEIKLYTKHGTLKYQTDCAPNNGYFMIPLYDKGDFILKIEPPLGWSFEPTTVELHVDGVSDICTKGGDINFVFTGFSVNGKVLSKGQPLGPAGVQVSLRNTGTEAKIQSTVTQPGGKFAFFKVLPGDYEILATHPTWALKEASTTVRVTNSNANAASPLIVAGYNVSGSVRSDGEPMKGVKFLLFSSLVTKEDVLGCNVSPVPGFQPQDESLVYLCYTVSREDGSFSFYSLPSGGYTVIPFYRGERITFDVAPSRLDFTVEHDSLKIEPVFHVMGFSVTGRVLNGPEGDGVPEAVVTLNNQIKVKTKADGSFRLENITTGTYTIHAQKEHLYFETVTIKIAPNTPQLADIIATGFSVCGQISIIRFPDTVKQMNKYKVVLSSQDKDKSLVTVETDAHGSFCFKAKPGTYKVQVMVPEAETRAGLTLKPQTFPLTVTNRPMMDVAFVQFLASVSGKVSCLDTCGDLLVTLQSLSRQGEKRSLQLSGKVNAMTFTFDNVLPGKYKISIMHEDWCWKNKSLEVEVLEDDMSAVEFRQTGYMLRCSLSHAITLEFYQDGNGRENVGIYNLSKGVNRFCLSKPGVYKVTPRSCHRFEQAFYTYDTSSPSILTLTAIRHHVLGTITTDKMMDVTVTIKSSIDSEPALVLGPLKSVQELRREQQLAEIEARRQEREKNGNEEGEERMTKPPVQEMVDELQGPFSYDFSYWARSGEKITVTPSSKELLFYPPSMEAVVSGESCPGKLIEIHGKAGLFLEGQIHPELEGVEIVISEKGASSPLITVFTDDKGAYSVGPLHSDLEYTVTSQKEGYVLTAVEGTIGDFKAYALAGVSFEIKAEDDQPLPGVLLSLSGGLFRSNLLTQDNGILTFSNLSPGQYYFKPMMKEFRFEPSSQMIEVQEGQNLKITITGYRTAYSCYGTVSSLNGEPEQGVAMEAVGQNDCSIYGEDTVTDEEGKFRLRGLLPGCVYHVQLKAEGNDHIERALPHHRVIEVGNNDIDDVNIIVFRQINQFDLSGNVITSSEYLPTLWVKLYKSENLDNPIQTVSLGQSLFFHFPPLLRDGENYVVLLDSTLPRSQYDYILPQVSFTAVGYHKHITLIFNPTRKLPEQDIAQGSYIALPLTLLVLLAGYNHDKLIPLLLQLTSRLQGVRALGQAASDNSGPEDAKRQAKKQKTRRT
notes: NOMO1 (nodal modulator 1), human, full length; Results and legend call it NOMO-FLAG, the methods Flag-NOMO^WT: the end of the tag is not clear; also called WT NOMO-FLAG; Flag-NOMO^WT; source: Expi293F, transfected, purified (anti-FLAG M2 beads, FLAG peptide elution, SEC) in DDM
stoichiometry N [1]: 2

B2: NOMOr^4-Mut-FLAG (FL NOMO1 K66E, D70K, D121K, K931E) (natural protein, human, UniProt Q15155 32-1222, looked up)
chain: B1 chain with K35E, D39K, D90K, K900E
notes: NOMO1, human, full length, four charge-reversal mutations at the Ig 1/10/11 interface; Results and legend call it -FLAG, the methods Flag-NOMO^4-Mut: the end of the tag is not clear; also called NOMO^4Mut-FLAG; Flag-NOMO^4-Mut; source: Expi293F, transfected, purified (anti-FLAG M2 beads, FLAG peptide elution, SEC) in DDM
stoichiometry N [1]: 2

Results, then the binder that gave them:

Kd [2]: 2800 nM and 1400 nM and 1300 nM
B3: His6-Ig 1–2 (NOMO1 Ig-like domains 1–2) (domain or fragment)
chain: T2 chain
modifications: N-terminal His6 tag omitted; limits not given, taken from signal peptide end to the Ig 2/Ig 3 boundary N-terminal His6 tag omitted; limits not given, set from Ig fold boundaries and the ~20 kD size of Ig 10-11

Kd [3]: 1830 ± 840 nM
B4: His6-Ig 10–11 (NOMO1 Ig-like domains 10–11) (domain or fragment)
chain: T1 chain
modifications: N-terminal His6 tag omitted; limits not given, set from Ig fold boundaries and the ~20 kD size of Ig 10-11 / N-terminal His6 tag omitted; limits not given, taken from signal peptide end to the Ig
